Source: patent US5432264A (priority 1987, dated 1995)
Read-outs that look alike come from different tables or passages of the source. Peptide text beside a SMILES is read from it. * marks the point of attachment. Cbz = O=C(OCc1ccccc1)*; CHN2 = [N-]=[N+]=C*

Assays:
[1] = tested on: poliovirus (Mahoney strain); assay type: cell-based, poliovirus type 1; details: for effect on poliovirus replication (in words): inhibitor added to cultivation medium; for Virus Yield: poliovirus type 1, multiplicity 1, 48 hrs at 37° C.
poliovirus type 1 = assay type: cell-based; details: 24 μg per disc, green monkey kidney cells infected with poliovirus type 1
[2] = tested on: herpes simplex virus type 1 (HSV); assay type: cell-based
HSV type 1 (F strain) = assay type: cell-based; details: for Virus Yield: 48 hrs at 37° C.
[3] = molecular target: cathepsin B (EC 3.4.22.1); assay: Equilibrium constant for dissociation of inhibitor-enzyme complex, cathepsin B; assay type: binding
Procedure: (§1) Biological activity of 3-des-OH-cystatin C was determined through titration against concentration determined papain. The strength of binding 3-des-OH-cystatin on the cystein proteinases papain (EC 3.4.22.2), cathepsin B (EC 3.4.22.1) and dipeptidyl peptidases I (F.C 3.4.14.1) was determined. The equilibrium constant for dissociation of 3-des-OH-cystatinC enzyme complex (0.005 nM, 0.50 nM and 3.1 nM) was within the experimental error limit identical with the equilibrium constant for human cystatin C enzyme complex (<0.005 nM, 0.27 nM and 6.3 nM For papan, cathepsin B and dipeptidyl peptidases I, respectively).

papain = assay: Papain-inhibiting capacity by titration of active papain, substrate Z-Phe-Arg-NHMec; assay type: biochemical; details: papain-inhibiting capacity relative to molar cystatin C concentration; range over several preparations
Procedure: The papain-inhibiting capacity of recombinant 3-des-OH-cystatin C was compared with the corresponding activity of human cystatin C.
The human cystatin C was isolated from urine of patients with mixed glomerular-tubular proteinuria by ultrafiltration, ion-exchange chromatography and gel filtration as described in literature (ref. 2,3) and lyophilized. A total of ten different preparations of human cystatin C and 3-des-OH-cystatin C were tested for their cystein proteinase inhibitory capacity. The cystatin C and 3-des-OH-cystatin C preparations derived from human urine and recombinant technique, respectively, were individually dissolved in 0.15 mol/l ammonium bicarbonate. Cystatin C concentrations of the resulting solutions were determined by phys-ico-chemical and immuno-diffusion and quantitation of amino acids released at hydrolysis in 6 mol/l HCl). The cysteine proteinase inhibiting capacities of these solutions were determined by adding them to a solution of isolated papain (cf. ref. 4), a plant cysteine proteinase widely used as a model for cysteine proteinases in general, and then determining the residual proteolytic activity of the resulting mixtures.
The cysteine proteinase activities of the papain solution and the cystatin C-papain mixtures were determined using the fluorogenic substrate Z-Phe-Arg-NHMec (ref. 5). […]

[4] = molecular target: dipeptidyl peptidases I (F.C 3.4.14.1); assay: Equilibrium constant for dissociation of inhibitor-enzyme complex, dipeptidyl peptidase I; assay type: binding
Procedure: as §1

Row | Molecule | effect on poliovirus replication (in words) [1] | Virus Yield ([1]; 0.4 mM Z-LVG-CHN2 in 1% DMSO) | inhibition of plaque formation around disc (poliovirus type 1) | inhibition of plaque formation around disc [2] | inhibition of HSV replication (HSV type 1 (F strain)) | Virus Yield (HSV type 1 (F strain)) | Virus Yield ([1]; 0.10 mM cystatin C in MEM) | Kd [3] | molar inhibitory capacity (papain) | effect on HSV replication (in words) (HSV type 1 (F strain)) | Kd [4]
1 | CC(C)C[C@H](NC(=O)OCc1ccccc1)C(=O)N[C@H](C(=O)NCC(=O)C=[N+]=[N-])C(C)C [Z-LVG-CHN2, N-benzyloxycarbonyl-leucyl-valyl-glycine diazomethyl ketone, reference compound] (Cbz-Leu-Val-Gly-CHN2) | hardly significant | 4.8 × 10^7 pfu/ml | no inhibition of plaque formation | marked inhibition zones | > 99.9 | 1.4 × 10^3 |  |  |  |  | 
2 | 3-des-OH-cystatin C: Recombinant 120 amino acid human cystatin C with non-hydroxylated Pro at position 3, expressed in E. coli (protein, UniProt P01034 27-146, looked up, non-hydroxylated Pro3, Recombinant 120 amino acid human cystatin C with non-hydroxylated Pro at position 3, expressed in E. coli) Cystatin-C: SSPGKPPRLVGGPMDASVEEEGVRRALDFAVGEYNKASNDMYHSRALQVVRARKQIVAGVNYFLDVELGRTTCTKTQPNLDNCPFHDQPHLKRKAFCSFQIYAVPWQGTMTLSKSTCQDA | no influence on the replication of poliovirus |  |  |  |  | 2.4 × 10^3 | 1.1 × 10^8 pfu/ml | 0.5 nM | 83-98% | potent inhibitor of HSV replication | 3.1 nM
3 | human cystatin C: Native cystatin C isolated from human urine; mixture of 3-OH-Pro form and 3-des-OH form (protein, UniProt P01034 27-146, looked up) Cystatin-C: SSPGKPPRLVGGPMDASVEEEGVRRALDFAVGEYNKASNDMYHSRALQVVRARKQIVAGVNYFLDVELGRTTCTKTQPNLDNCPFHDQPHLKRKAFCSFQIYAVPWQGTMTLSKSTCQDA |  |  |  |  |  |  |  | 0.27 nM | 5-55% |  | 6.3 nM
